Results reported in patent publication US20180251563A1 (SUBDOMAIN, published 2018).

How the values were obtained:
[1] = molecular target: T1, PD-L1-Fc (UniProt Q9NZQ7 19-238); assay: ELISA, purified FLAG-tagged protein on PD-L1-Fc coated wells
T1 construct: purified recombinant target-Fc protein; also called FC-PD-L1; not shown: Fc

[2] = molecular target: T2, recombinant, biotinylated, Human 4-1BB/TNFRSF9/CD137-Fc (human, UniProt Q07011 24-186, biotinylated (F2NNK selection)); assay: phage ELISA, target-Fc against non-specific control (IgG Fc)
T2 construct: also called 4-1BB/CD137; not shown: Fc
T2 sequence (Q07011 24-186 limits assumed): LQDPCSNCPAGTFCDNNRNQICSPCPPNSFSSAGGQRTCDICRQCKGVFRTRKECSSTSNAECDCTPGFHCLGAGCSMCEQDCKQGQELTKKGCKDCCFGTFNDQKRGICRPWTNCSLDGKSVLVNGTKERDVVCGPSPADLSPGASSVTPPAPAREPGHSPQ
Excerpt: The F2NNK DBD library was used in five rounds of selection against recombinant, biotinylated, Human 4-1BB/TNFRSF9/CD137-Fc.

[3] = molecular target: T3, Fc-fusion protein comprising the extracellular domain of CD123 fused to human IgG1 Fc (human, UniProt P26951 19-305); assay: flow cytometry, transiently transfected 293T cells incubated with CD123-Fc, detection with PE anti-human IgG; CAR expression by anti-FLAG
T3 construct: also called Fc-CD123; not shown: human IgG1 Fc
T3 sequence: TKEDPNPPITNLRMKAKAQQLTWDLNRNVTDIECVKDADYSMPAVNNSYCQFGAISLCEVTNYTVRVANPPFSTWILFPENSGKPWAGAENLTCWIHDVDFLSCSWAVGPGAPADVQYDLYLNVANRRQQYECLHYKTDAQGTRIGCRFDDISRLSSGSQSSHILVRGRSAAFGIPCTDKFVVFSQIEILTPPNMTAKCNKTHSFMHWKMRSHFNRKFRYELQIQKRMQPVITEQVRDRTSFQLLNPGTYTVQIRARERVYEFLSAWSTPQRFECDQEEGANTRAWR
Description: 293T cells were transiently transfected with pcDNA3 expression vectors encoding DBDpp containing CARs using (see, e.g., FIG. 5B) Lipofectamine 3000 (Life Technologies). After 24 hours, cells were collected using CellStripper™. Cells were assessed for CAR expression using a fluorescent-labeled anti-FLAG antibody. DBDpp containing CARs binding to CD123 was measured by incubating cells with a Fc-fusion protein comprising the extracellular domain of CD123 fused to human IgG1 Fc in cell culture media at 37° for 30 minutes, washing, and then detection with a PE anti-human IgG antibody. Both CD123 binding and CAR expression (FLAG Tag) were assayed by flow cytometry. Data are shown in FIG. 17, and each data point indicates the average FLAG expression and CD123-binding for each of the DBDpp-CARs from multiple experiments.

[4] = molecular target: T4, CTLA4-Fc (UniProt P16410 36-161, limits assumed); assay: phage ELISA, target-Fc against non-specific control
T4 construct: purified recombinant target-Fc protein; not shown: Fc
T4 sequence (P16410 36-161 limits assumed): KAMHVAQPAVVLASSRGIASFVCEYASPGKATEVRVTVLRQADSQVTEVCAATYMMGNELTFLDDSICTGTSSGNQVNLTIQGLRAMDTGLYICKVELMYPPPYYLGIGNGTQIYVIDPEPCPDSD
Description: (§1) Selections were also performed using F1, F2, F3, C1 & C2 trinucleotide phosphoramidite libraries. In most cases, libraries were pooled prior to use in selection. By combining equal volumes of the individual libraries, Pool F (libraries F1, F2 and F3) and Pool C (libraries C1 and C2) were generated. These libraries were used in selections for DBDpp binders to 4-1BB/CD137 as well as a larger panel of purified recombinant “target”-Fc proteins, including CD47, CTLA4, DR5, KIR, LAG3, OX40, PD1, PD-L1 and TIM3. (Many of these targets are considered immuno-regulatory factors (Pardoll et al., Nat. Rev. Cancer 12:252-264 (2012)). After incubation of the target with the pools of DBDpp phage libraries, bound phage-target complexes were captured and separated from unbound phage with protein A beads (target proteins were Fc fusions). After three rounds of selection, rescued phage clones were screened by ELISA for binding to the selected target.
(§2) For each target, approximately 90 DBDpp phage clones were screened by ELISA for binding to the target protein and as well as a non-specific control (e.g., IgG1-Fc). […] In some instances, for the ELISA screening plate in which the majority of DBDpp clones were positive, the entire plate was sequenced.

[5] = molecular target: T5, TIM3-Fc (UniProt Q8TDQ0 22-200); assay: as above
T5 construct: purified recombinant target-Fc protein; not shown: Fc
Description: as §1, §2

T1 sequence (Q9NZQ7 19-238 limits assumed): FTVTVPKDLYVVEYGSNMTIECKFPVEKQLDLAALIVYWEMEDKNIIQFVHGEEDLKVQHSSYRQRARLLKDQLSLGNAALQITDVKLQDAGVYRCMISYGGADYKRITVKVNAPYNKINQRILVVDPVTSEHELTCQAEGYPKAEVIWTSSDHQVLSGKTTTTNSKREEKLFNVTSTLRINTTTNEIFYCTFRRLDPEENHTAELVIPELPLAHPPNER

B1: FLAG-α3D (other)
chain: MGSWAEFKQRLAAIKTRLQALGGSEAELAAFEKEIAAFESELQAYKGKGNPEVEALRKEAAAIRDELQAYRHN
notes: expressed and purified from E. coli; also called N-terminal FLAG tag fusion of a3D; alpha3D; not shown: N-terminal FLAG tag
**Q.** Does B1 bind [1]?
**A.** no binding (tested: about 1000 nM)

B2: bb10 (designed binder)
chain: MGSWAEFKQRLAAIKTRLEALGGSEAELAAFLGEIWAFEMELAAYKGKGNPEVEALGREAAAIRMELQAYRHN
notes: F2NNK library clone
**Q.** With B2 as the binder, how does the “ELISA ratio (target to background)” value [2] read?
**A.** 5.27 ratio

B3: cg06 DBDpp-CAR (other)
chain: MGSWDEFGRRLYAIEWRLYALGGSEAELAAFEKEIAAFESELQAYKGKGNPEVEKLREIAAVIRSNLQAYRHN
notes: expressed on Jurkat NFAT reporter cells; not shown: rest of the CAR (FLAG tag, linker, transmembrane and intracellular domains) not specified
**Q.** Does B3 bind [3]?
**A.** binds

B4: SEQ ID NO 25 (designed binder)
chain: MGSWHEFHDRLQAIHERLYALGGSEAELAAFEKEIAAFESELQAYKGKGNPEVESLRIAAAHIRQVLQAYRHN
**Q.** B4 was tested. Which “ELISA ratio (target to background)” value [4] did it give?
**A.** 2.95 ratio

B5: SEQ ID NO 45 (designed binder)
chain: MGSWVVFKVDLATIKYILEALGGSEAELAEFEGEIAGFEYSLQFYKGKGNPEVEALRKEAAAIRDELQAYRHN
**Q.** B5 was tested. Which “ELISA ratio (target to background)” value [5] did it give?
**A.** 5.79 ratio
